# B1: Ly801 (bispecific antibody, human IgG1, kappa)
# heavy: EVQLQQSGPELVKPGASVKMSCKASGYTFTSYVMHWVKQKPGQGLEWIGYINPYNDGTECTDKFKGKATLTSDKSSSTAYMELSSLTSEDSAVYYCASIYYGYDGTYFGVWGAGTSVTVSSASTKGPSVFPLAPSSKSTSGGTAALGCLVKDYFPEPVTVSWNSGALTSGVHTFPAVLQSSGLYSLSSVVTVPSSSLGTQTYICNVNHKPSNTKVDKKVEPKSCDKTHTCPPCPAPELLGPSVFLFPPKPKDTLMISRTPEVTCVVVDVSHEDPEVKFNWYVDGVEVHNAKTKPREEQYNSTYRVVSVLTVLHQDWLNGKEYKCKVSNKALPAPIEKTISKAKGQPREPQVYTLPPSREEMTKNQVSLTCLVKGFYPSDIAVEWESNGQPENNYKTTPPVLDSDGSFFLYSKLTVDKSRWQQGNVFSCSVMHEALHNHYTQKSLSLSPG
# light: QIVLSQSPAILSTSPGEKVTMTCRASSSVSYMHWYQQKPGSSPKPWIYATSNLASGVPARFSGSRSGTSYSLTISRVEAEDAATYYCQQWSSNTLTFGGGTKLELKRTVAAPSVFIFPPSDEQLKSGTASVVCLLNNFYPREAKVQWKVDNALQSGNSQESVTEQDSKDSTYSLSSTLTLSKADYEKHKVYACEVTHQGLSSPVTKSFNRGECGGGGSGGGGSGGGGSGGGGSDIQMTQSPSSLSASVGDRVTITCKASQNIYIYLNWYQQKPGKAPKLLIYNTNNLQTGVPSRFSGSGSGTDFTLTISSLQPEDFATYYCLQHSSRRTFGGGTKVEIKGGGGSGGGGSGGGGSGGGGSQVQLVESGGGLVQPGGSLKLSCATSGFNFNDYFMNWVRQASGKGLEWVGQIRNKNYNYATYYTESLEGRVTISRDDSKNTAYLQMNSLKTEDTAVYYCTSYYYDGFADYFDYWGQGTTVTVSS
# notes: Ly383 HC (IgG1 mutated Fc) + Ly383 LC-TM740 scFv VL-VH
# B2: Ly802 (bispecific antibody, human IgG1, kappa)
# heavy: EVQLQQSGPELVKPGASVKMSCKASGYTFTSYVMHWVKQKPGQGLEWIGYINPYNDGTECTDKFKGKATLTSDKSSSTAYMELSSLTSEDSAVYYCASIYYGYDGTYFGVWGAGTSVTVSSASTKGPSVFPLAPSSKSTSGGTAALGCLVKDYFPEPVTVSWNSGALTSGVHTFPAVLQSSGLYSLSSVVTVPSSSLGTQTYICNVNHKPSNTKVDKKVEPKSCDKTHTCPPCPAPELLGPSVFLFPPKPKDTLMISRTPEVTCVVVDVSHEDPEVKFNWYVDGVEVHNAKTKPREEQYNSTYRVVSVLTVLHQDWLNGKEYKCKVSNKALPAPIEKTISKAKGQPREPQVYTLPPSREEMTKNQVSLTCLVKGFYPSDIAVEWESNGQPENNYKTTPPVLDSDGSFFLYSKLTVDKSRWQQGNVFSCSVMHEALHNHYTQKSLSLSPG
# light: QIVLSQSPAILSTSPGEKVTMTCRASSSVSYMHWYQQKPGSSPKPWIYATSNLASGVPARFSGSRSGTSYSLTISRVEAEDAATYYCQQWSSNTLTFGGGTKLELKRTVAAPSVFIFPPSDEQLKSGTASVVCLLNNFYPREAKVQWKVDNALQSGNSQESVTEQDSKDSTYSLSSTLTLSKADYEKHKVYACEVTHQGLSSPVTKSFNRGECGGGGSGGGGSGGGGSGGGGSQVQLVESGGGLVQPGGSLKLSCATSGFNFNDYFMNWVRQASGKGLEWVGQIRNKNYNYATYYTESLEGRVTISRDDSKNTAYLQMNSLKTEDTAVYYCTSYYYDGFADYFDYWGQGTTVTVSSGGGGSGGGGSGGGGSGGGGSDIQMTQSPSSLSASVGDRVTITCKASQNIYIYLNWYQQKPGKAPKLLIYNTNNLQTGVPSRFSGSGSGTDFTLTISSLQPEDFATYYCLQHSSRRTFGGGTKVEIK
# notes: Ly383 HC (IgG1 mutated Fc) + Ly383 LC-TM740 scFv VH-VL
# B3: Ly803 (bispecific antibody, human IgG1, kappa)
# heavy: EVQLQQSGPELVKPGASVKMSCKASGYTFTSYVMHWVKQKPGQGLEWIGYINPYNDGTECTDKFKGKATLTSDKSSSTAYMELSSLTSEDSAVYYCASIYYGYDGTYFGVWGAGTSVTVSSASTKGPSVFPLAPSSKSTSGGTAALGCLVKDYFPEPVTVSWNSGALTSGVHTFPAVLQSSGLYSLSSVVTVPSSSLGTQTYICNVNHKPSNTKVDKKVEPKSCDKTHTCPPCPAPELLGPSVFLFPPKPKDTLMISRTPEVTCVVVDVSHEDPEVKFNWYVDGVEVHNAKTKPREEQYNSTYRVVSVLTVLHQDWLNGKEYKCKVSNKALPAPIEKTISKAKGQPREPQVYTLPPSREEMTKNQVSLTCLVKGFYPSDIAVEWESNGQPENNYKTTPPVLDSDGSFFLYSKLTVDKSRWQQGNVFSCSVMHEALHNHYTQKSLSLSPG
# light: QIVLSQSPAILSTSPGEKVTMTCRASSSVSYMHWYQQKPGSSPKPWIYATSNLASGVPARFSGSRSGTSYSLTISRVEAEDAATYYCQQWSSNTLTFGGGTKLELKRTVAAPSVFIFPPSDEQLKSGTASVVCLLNNFYPREAKVQWKVDNALQSGNSQESVTEQDSKDSTYSLSSTLTLSKADYEKHKVYACEVTHQGLSSPVTKSFNRGECGGGGSGGGGSGGGGSGGGGSDIQMTQSPSSLSASVGDRVTITCLASEDISNDLAWYQQKPGKAPKLLIYFVDRLLDGVPSRFSGSGSGTDFTLTISSLQPEDFATYYCQQSYKYPPTFGQGTKLEIKGGGGSGGGGSGGGGSGGGGSEVQLVESGGGLVQPGGSLRLSCAASGFTFTNYGLHWVRQAPGKGLEWVSSISPSGGVTYYRDSVKGRFTISRDNSKNTLYLQMNSLRAEDTAVYYCAKPFLGWGGANWIAHWGQGTLVTVSS
# notes: Ly383 HC (IgG1 mutated Fc) + Ly383 LC-TM559 scFv VL-VH
# B4: Ly804 (bispecific antibody, human IgG1, kappa)
# heavy: EVQLQQSGPELVKPGASVKMSCKASGYTFTSYVMHWVKQKPGQGLEWIGYINPYNDGTECTDKFKGKATLTSDKSSSTAYMELSSLTSEDSAVYYCASIYYGYDGTYFGVWGAGTSVTVSSASTKGPSVFPLAPSSKSTSGGTAALGCLVKDYFPEPVTVSWNSGALTSGVHTFPAVLQSSGLYSLSSVVTVPSSSLGTQTYICNVNHKPSNTKVDKKVEPKSCDKTHTCPPCPAPELLGPSVFLFPPKPKDTLMISRTPEVTCVVVDVSHEDPEVKFNWYVDGVEVHNAKTKPREEQYNSTYRVVSVLTVLHQDWLNGKEYKCKVSNKALPAPIEKTISKAKGQPREPQVYTLPPSREEMTKNQVSLTCLVKGFYPSDIAVEWESNGQPENNYKTTPPVLDSDGSFFLYSKLTVDKSRWQQGNVFSCSVMHEALHNHYTQKSLSLSPG
# light: QIVLSQSPAILSTSPGEKVTMTCRASSSVSYMHWYQQKPGSSPKPWIYATSNLASGVPARFSGSRSGTSYSLTISRVEAEDAATYYCQQWSSNTLTFGGGTKLELKRTVAAPSVFIFPPSDEQLKSGTASVVCLLNNFYPREAKVQWKVDNALQSGNSQESVTEQDSKDSTYSLSSTLTLSKADYEKHKVYACEVTHQGLSSPVTKSFNRGECGGGGSGGGGSGGGGSGGGGSEVQLVESGGGLVQPGGSLRLSCAASGFTFTNYGLHWVRQAPGKGLEWVSSISPSGGVTYYRDSVKGRFTISRDNSKNTLYLQMNSLRAEDTAVYYCAKPFLGWGGANWIAHWGQGTLVTVSSGGGGSGGGGSGGGGSGGGGSDIQMTQSPSSLSASVGDRVTITCLASEDISNDLAWYQQKPGKAPKLLIYFVDRLLDGVPSRFSGSGSGTDFTLTISSLQPEDFATYYCQQSYKYPPTFGQGTKLEIK
# notes: Ly383 HC (IgG1 mutated Fc) + Ly383 LC-TM559 scFv VH-VL
# B5: Ly805 (bispecific antibody, human IgG1, kappa)
# heavy: QVQLQQPGAELVKPGASVKLSCKASGYTFTSYWMHWVKQRPGQGLEWIGMIHPNSGGTNYNEKFKGKGTLTVDKSSSTAYMQLSSLTSDDSAVYYCVTSQATWFAYWGQGTLVTVSAASTKGPSVFPLAPSSKSTSGGTAALGCLVKDYFPEPVTVSWNSGALTSGVHTFPAVLQSSGLYSLSSVVTVPSSSLGTQTYICNVNHKPSNTKVDKKVEPKSCDKTHTCPPCPAPELLGPSVFLFPPKPKDTLMISRTPEVTCVVVDVSHEDPEVKFNWYVDGVEVHNAKTKPREEQYNSTYRVVSVLTVLHQDWLNGKEYKCKVSNKALPAPIEKTISKAKGQPREPQVYTLPPSREEMTKNQVSLTCLVKGFYPSDIAVEWESNGQPENNYKTTPPVLDSDGSFFLYSKLTVDKSRWQQGNVFSCSVMHEALHNHYTQKSLSLSPG
# light: ENVLTQSPAIMSVSPGEKVTMTCRASSSVSSSYLHWYQQKSGASPKFWIYSTSNLASGVPARFSGSGSGTSYSLTISSVEAEDAATYYCQHYSGYPLTFGAGTKLELRRTVAAPSVFIFPPSDEQLKSGTASVVCLLNNFYPREAKVQWKVDNALQSGNSQESVTEQDSKDSTYSLSSTLTLSKADYEKHKVYACEVTHQGLSSPVTKSFNRGECGGGGSGGGGSGGGGSGGGGSDIQMTQSPSSLSASVGDRVTITCKASQNIYIYLNWYQQKPGKAPKLLIYNTNNLQTGVPSRFSGSGSGTDFTLTISSLQPEDFATYYCLQHSSRRTFGGGTKVEIKGGGGSGGGGSGGGGSGGGGSQVQLVESGGGLVQPGGSLKLSCATSGFNFNDYFMNWVRQASGKGLEWVGQIRNKNYNYATYYTESLEGRVTISRDDSKNTAYLQMNSLKTEDTAVYYCTSYYYDGFADYFDYWGQGTTVTVSS
# notes: Ly387 HC (IgG1 mutated Fc) + Ly387 LC-TM740 scFv VL-VH
# B6: Ly806 (bispecific antibody, human IgG1, kappa)
# heavy: QVQLQQPGAELVKPGASVKLSCKASGYTFTSYWMHWVKQRPGQGLEWIGMIHPNSGGTNYNEKFKGKGTLTVDKSSSTAYMQLSSLTSDDSAVYYCVTSQATWFAYWGQGTLVTVSAASTKGPSVFPLAPSSKSTSGGTAALGCLVKDYFPEPVTVSWNSGALTSGVHTFPAVLQSSGLYSLSSVVTVPSSSLGTQTYICNVNHKPSNTKVDKKVEPKSCDKTHTCPPCPAPELLGPSVFLFPPKPKDTLMISRTPEVTCVVVDVSHEDPEVKFNWYVDGVEVHNAKTKPREEQYNSTYRVVSVLTVLHQDWLNGKEYKCKVSNKALPAPIEKTISKAKGQPREPQVYTLPPSREEMTKNQVSLTCLVKGFYPSDIAVEWESNGQPENNYKTTPPVLDSDGSFFLYSKLTVDKSRWQQGNVFSCSVMHEALHNHYTQKSLSLSPG
# light: ENVLTQSPAIMSVSPGEKVTMTCRASSSVSSSYLHWYQQKSGASPKFWIYSTSNLASGVPARFSGSGSGTSYSLTISSVEAEDAATYYCQHYSGYPLTFGAGTKLELRRTVAAPSVFIFPPSDEQLKSGTASVVCLLNNFYPREAKVQWKVDNALQSGNSQESVTEQDSKDSTYSLSSTLTLSKADYEKHKVYACEVTHQGLSSPVTKSFNRGECGGGGSGGGGSGGGGSGGGGSQVQLVESGGGLVQPGGSLKLSCATSGFNFNDYFMNWVRQASGKGLEWVGQIRNKNYNYATYYTESLEGRVTISRDDSKNTAYLQMNSLKTEDTAVYYCTSYYYDGFADYFDYWGQGTTVTVSSGGGGSGGGGSGGGGSGGGGSDIQMTQSPSSLSASVGDRVTITCKASQNIYIYLNWYQQKPGKAPKLLIYNTNNLQTGVPSRFSGSGSGTDFTLTISSLQPEDFATYYCLQHSSRRTFGGGTKVEIK
# notes: Ly387 HC (IgG1 mutated Fc) + Ly387 LC-TM740 scFv VH-VL
# Target: T1, human CD40 expressed on CHO cells (human, UniProt P25942 21-277)
# T1 construct: whole, on cells; also used for the reporter cells over-expressing human CD40; also called cellular CD40; CHO-CD40 cells
# Experiment: FACS, CHO cells
# T1 sequence (P25942 21-277): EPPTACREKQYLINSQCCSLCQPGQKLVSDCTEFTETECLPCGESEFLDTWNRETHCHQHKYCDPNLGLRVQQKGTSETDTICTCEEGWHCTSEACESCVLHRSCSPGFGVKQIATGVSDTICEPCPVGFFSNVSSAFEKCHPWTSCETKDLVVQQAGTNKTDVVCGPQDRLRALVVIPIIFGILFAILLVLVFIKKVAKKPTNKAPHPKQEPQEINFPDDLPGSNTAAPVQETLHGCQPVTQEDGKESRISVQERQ
row,Binder,binding result
1,B1,binds
2,B2,binds
3,B3,binds
4,B4,binds
5,B5,binds
6,B6,binds

# Source: patent US20220372155A1 (LYVGEN BIOPHARMA, published 2022)
